For one molecule, fold lower binding than the P. goldsteinii epitope results are on record in article doi:10.1101/2020.08.05.236513.

For the assay, the target named is H-2 I-A^b class II MHC molecule (mouse (endogenous in LB27.4)). The experiment in a line: radioligand binding.

The molecule Ac-KWDYRESRVWVNDQ-NH2 [14-mer N-acetylated P. merdae β-hex peptide] registered a fold lower binding than the P. goldsteinii epitope of 3 fold.
